Experimental data: patent US20210309984

Test system: MUC5AC within type II porcine stomach mucin extract

| Substance | immunoblot of MUC5AC degradation, in the presence of EDTA | immunoblot of MUC5AC degradation in type II mucin extract |
| --- | --- | --- |
| ChiA C-domain (ChiA-CTD: residues 419-762), wild-type | no activity was detected | – |
| SsIE (residues 90-1520), E. coli strain W | no activity was detected | MUC5AC was processed into a different ˜60 kDa species |
